The results in this text go back to patent US20220089691A1 (NATIONAL DEFENSE MEDICAL CENTER, published 2022).

This assay addresses T1, SARS-CoV spike protein as made in Vero E6 cells infected with SARS-CoV (SARS-CoV, UniProt P59594 14-1255).
T1 construct: whole, on cells
Put plainly: IFA on Vero E6 cells infected with SARS-CoV.

B1: Monoclonal antibody (mAb) 8a-1 (antibody, V domains shown)
VH: EVQLQESGGGLVQPGGSLKLSCAASGFTFSSYTMSWVRQTPEKRLEWVAYISNGGGSISYPDTVKGRFTISRDNAKNTLYLHMSSLKSEDTAMYHCAREGLRPGDRDRYYAMDYWGQGTSVTVSS
VL: DIVITQSPALMAAFPGDRVTITCSVSSSVSSSNLHWYRQKSETSPKPWIYGTSTLASGVPVRFSGSGSGTSYSLTISSMEAEDAATYYCQQWSSYPLTFGAGTKLELKR
notes: also called clone 8a-1; first antibody
Regarding B1, the binding result is on record as “binds”.

B2: Monoclonal antibody (mAb) 27b-2 (antibody, V domains shown)
VH: EVQLQESGGGLVKLGGSLKLSCAASGFTFSTYYMSWVRQTPEKRLELVAAINSNGGGTYYPDNVKGRFTISRDNAKNTLYLQMSSLKSEDTALYYCTNYFGSTYAMDYWGQGTSVTVSS
VL: DIVLTQSPLSLPVSLGDQASISCRSSQSLVHSNGNTYLHWYLQKPGQSPKLLIYKVSNRFSGVPDRFSGSGLGTDFTLKIIRVEAEDLGVYFCSQNTHVPFTFGSGTKLEIKR
notes: also called clone 27b-2; second antibody
Regarding B2, the binding result is “binds”.
